Our source for the Kd values is article doi:10.1101/2024.04.30.591854.

pKd: −log10 of the molar value.

The target in this assay is RBK21 variable region (residues 148-299) (Plasmodium falciparum (strain Lek174)). The experiment in a line: SPR.

Sequence of KIR2DS1 as used in the SPR experiment with RBK21 (Q14954 22-304): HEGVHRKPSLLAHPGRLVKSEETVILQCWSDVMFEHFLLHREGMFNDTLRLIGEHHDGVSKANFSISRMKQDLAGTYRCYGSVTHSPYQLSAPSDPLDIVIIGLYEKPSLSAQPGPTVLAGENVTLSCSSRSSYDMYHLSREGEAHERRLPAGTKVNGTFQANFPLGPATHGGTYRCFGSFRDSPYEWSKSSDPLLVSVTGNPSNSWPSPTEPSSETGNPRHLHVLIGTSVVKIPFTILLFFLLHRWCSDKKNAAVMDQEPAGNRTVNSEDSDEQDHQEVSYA
Sequence of KIR2DL1 as used in the SPR experiments with RBK21 (P43626 22-348): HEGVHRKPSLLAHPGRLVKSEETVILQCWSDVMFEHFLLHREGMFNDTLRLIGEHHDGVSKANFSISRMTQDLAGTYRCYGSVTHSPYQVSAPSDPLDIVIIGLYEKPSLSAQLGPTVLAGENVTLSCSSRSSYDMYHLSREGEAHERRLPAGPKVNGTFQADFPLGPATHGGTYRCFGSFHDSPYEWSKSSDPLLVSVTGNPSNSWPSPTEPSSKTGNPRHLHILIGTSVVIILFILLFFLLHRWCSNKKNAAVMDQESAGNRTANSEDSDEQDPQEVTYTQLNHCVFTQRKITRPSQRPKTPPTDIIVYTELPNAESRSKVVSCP

“KIR2DL1 as used in the SPR experiments with RBK21 (from UniProt P43626 22-348) (receptor)” had a pKd of 6.35. The substance “KIR2DS1 as used in the SPR experiment with RBK21 (from UniProt Q14954 22-304) (receptor)” had a pKd of 5.70.
